{"source": "paper PMC9879285", "biological_target": "V2E FP_HM (HIV gp41 ectodomain construct FP_HM with the V2E mutation) (HIV (HXB2 laboratory strain))", "assay": "SEC", "note": "“And” between values parts separate entries of the source, which are not always exact repeats. Equal entries are not always repeated."}
{"substance": "V2E FP_HM (HIV gp41 ectodomain construct FP_HM with the V2E mutation) (domain or fragment)", "values": [{"measurement": "stoichiometry N", "value": "3 and 6"}]}
